32 sequences from the supplement of paper PMC10201428 can be followed below.

Data set [1] deals with VchCAST RNA-guided transposition machinery (E. coli BL21(DE3) host, lacZ target). The experiment in a line: relative integration efficiency (T-LR orientation) vs wild-type transposon end (log2 (normalized fold change)); transposon end mutated: right end (5 bp flank + 75 bp right end); higher = more efficient transposition. The method in brief:
(§1)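 In E. coli BL21(DE3), a T7-driven effector plasmid was paired with a pUC57 mini-transposon donor containing 1549 left-end or 1849 right-end barcoded transposon variants. Cells grew on plates with 0.1 mM IPTG at 37°C for 18 h. Relative integration efficiency was derived from Illumina reads of genomic integration junctions against input plasmids, as a log-transformed output/input barcode fold change normalised to reference barcodes.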

For data set [2] the test system is unchanged. The experiment in a line: relative integration efficiency (T-RL orientation) vs wild-type transposon end (log2 (normalized fold change)); transposon end mutated: right end (5 bp flank + 75 bp right end); higher = more efficient transposition. An outline of the steps: as §1

± gives the standard deviation of the averaged measurements.

As to “ACATTTGTTGATACAACCATAAAATCATTATTACACCCATTAATTGATAATTATCACACCCAATTTAACTATAACGCTCTGATCATAGTCAGACCAACATTGCTACGACCCGTATTCGCACCGACAC”, the “relative integration efficiency (log2)” value is 0.129 ± 0.18 in data set [1] and -3.73 ± 0.33 in data set [2].
With “ACATTTGTTGATACAACCATAAAATCTATATTACACCCATAAATTGATAATTATCACACCCATAAATTGATATTGCCTCTGATCATAGTCAGACCAACATTGCTACGACCCGTATTCGCACCGACAC”, the “relative integration efficiency (log2)” value in data set [1] is -1.85 ± 0.057; in data set [2], -1.55 ± 0.21.
On the same counts, the results for “ACATTTGTTGATACAACCATAAAATCTTAATTACACCCATAAATTGATAATTATCACACCCATAAATTGATATTGCCTCTGATCATAGTCAGACCAACATTGCTACGACCCGTATTCGCACCGACAC” are -1.09 ± 0.22 and -1.973 ± 0.011.
With “ACATTTGTTGATACAACCATAAAATGAAAATTACACCCATAAATTGAAAATTATCACACCCATAAATTGAAATTGCCTCTGATCATAGTCAGACCAACATTGCTACGACCCGTATTCGCACCGACAC”, the “relative integration efficiency (log2)” value was 0.0682 ± 0.25 in data set [1] and -1.13 ± 0.26 in data set [2].
The corresponding values for “ACATTTGTTGATACAACCATAAAATGAATATTACACCCATAAATTGATAATTATCACACCCATAAATTGATATTGCCTCTGATCATAGTCAGACCAACATTGCTACGACCCGTATTCGCACCGACAC” are -0.52 ± 0.4 and -0.772 ± 0.072.
The corresponding values for “ACATTTGTTGATACAACCATAAAATGAATTAATCACCCATAAATTGAATTAATTCACACCCATAAATTGAATAACGCTCTGATCATAGTCAGACCAACATTGCTACGACCCGTATTCGCACCGACAC” are -1.25 ± 0.054 and -2.34 ± 0.14.
With “ACATTTGTTGATACAACCATAAAATGAATTATACACCCATAAATTGATAATTATCACACCCATAAATTGATATTGCCTCTGATCATAGTCAGACCAACATTGCTACGACCCGTATTCGCACCGACAC”, the “relative integration efficiency (log2)” value in data set [1] was -0.0536 ± 0.3; in data set [2], -0.7 ± 0.18.
The corresponding values for “ACATTTGTTGATACAACCATAAAATGAGAATTACACCCATAAATTGAGAATTATCACACCCATAAATTGAGATTGCCTCTGATCATAGTCAGACCAACATTGCTACGACCCGTATTCGCACCGACAC” are -0.085 ± 0.14 and -1.04 ± 0.13.
The corresponding values for “ACATTTGTTGATACAACCATAAAATGAGCATTACACCCATAAATTGATAATTATCACACCCATAAATTGATATTGCCTCTGATCATAGTCAGACCAACATTGCTACGACCCGTATTCGCACCGACAC” are -0.621 ± 0.017 and -0.394 ± 0.049.
The corresponding values for “ACATTTGTTGATACAACCATAAAATGAGCCGGCACAAACGCCCGGTCGCCGGCGACACAAACGCCCGGTCGCGGTAAGAGGATCATAGTCAGACCAACATTGCTACGACCCGTATTCGCACCGACAC” are -0.24 ± 0.25 and -3.42 ± 0.22.
“ACATTTGTTGATACAACCATAAAATGAGCCGGCCACCCATAAATTGAGCCGGCTCACACCCATAAATTGAGCGGTACTCTGATCATAGTCAGACCAACATTGCTACGACCCGTATTCGCACCGACAC”: the figures for the “relative integration efficiency (log2)” value in data set [1] and in data set [2] were -1.65 ± 0.23 and -4.23 ± 0.084, respectively.
Turning to “ACATTTGTTGATACAACCATAAAATGAGCCGTACACCCATAAATTGATAATTATCACACCCATAAATTGATATTGCCTCTGATCATAGTCAGACCAACATTGCTACGACCCGTATTCGCACCGACAC”, the results for the “relative integration efficiency (log2)” value in data set [1] and in data set [2] were -0.26 ± 0.5 and -0.359 ± 0.21, respectively.
On the same counts, the results for “ACATTTGTTGATACAACCATAAAATGATAAAAACACCCATAAATTGATAATTATCACACCCATAAATTGATATTGCCTCTGATCATAGTCAGACCAACATTGCTACGACCCGTATTCGCACCGACAC” are -0.253 ± 0.4 and -0.347 ± 0.089.
On the same counts, the results for “ACATTTGTTGATACAACCATAAAATGATAAAATCACCCATAAATTGATAAAATTCACACCCATAAATTGATATACGCTCTGATCATAGTCAGACCAACATTGCTACGACCCGTATTCGCACCGACAC” are -0.368 ± 0.21 and -1.05 ± 0.087.
On to “ACATTTGTTGATACAACCATAAAATGATAAAATGACCCATAAATTGATAATTATCACACCCATAAATTGATATTGCCTCTGATCATAGTCAGACCAACATTGCTACGACCCGTATTCGCACCGACAC”, for which the “relative integration efficiency (log2)” value is 0.143 ± 0.81 in data set [1] and -0.49 ± 0.13 in data set [2].
In the case of “ACATTTGTTGATACAACCATAAAATGATAAATACACCCATAAATTGATAAATATCACACCCATAAATTGATATAGCCTCTGATCATAGTCAGACCAACATTGCTACGACCCGTATTCGCACCGACAC”, the “relative integration efficiency (log2)” value is 0.037 ± 0.84 in data set [1] and -0.443 ± 0.15 in data set [2].
The corresponding values for “ACATTTGTTGATACAACCATAAAATGATAAATACACCCATAAATTGATAATAATGACACCGAATTTAACTATAACGCTCTGATCATAGTCAGACCAACATTGCTACGACCCGTATTCGCACCGACAC” are 2.26 ± 0.23 and -1.36 ± 0.43.
For “ACATTTGTTGATACAACCATAAAATGATAAATACACCCATAAATTGATAATGATGACACCGAATTTAACTATAACGCTCTGATCATAGTCAGACCAACATTGCTACGACCCGTATTCGCACCGACAC”, the entries for the “relative integration efficiency (log2)” value in data set [1] and in data set [2] were 2.71 ± 0.18 and -0.862 ± 0.42, respectively.
The corresponding values for “ACATTTGTTGATACAACCATAAAATGATAAATACACCCATAAATTGATAATTGTGACACCGAATTTAACTATAACGCTCTGATCATAGTCAGACCAACATTGCTACGACCCGTATTCGCACCGACAC” are 2.56 ± 0.14 and -0.896 ± 0.3.
On the same counts, the results for “ACATTTGTTGATACAACCATAAAATGATAACACCCATAAATTGATAATTATCACACCCATAAATTGATATTGCCTCTGATCATAGTCAGACCAACATTGCTACGACCCGTATTCGCACCGACACTGA” are -1.25 ± 0.2 and -3.99 ± 0.2.
On the same counts, the results for “ACATTTGTTGATACAACCATAAAATGATAAGGACACCCATAAATTGATAATTATCACACCCATAAATTGATATTGCCTCTGATCATAGTCAGACCAACATTGCTACGACCCGTATTCGCACCGACAC” are -0.358 ± 0.15 and -0.956 ± 0.034.
Turning to “ACATTTGTTGATACAACCATAAAATGATAAGGCAACCCATAAATTGATAATTATCACACCCATAAATTGATATTGCCTCTGATCATAGTCAGACCAACATTGCTACGACCCGTATTCGCACCGACAC”, the “relative integration efficiency (log2)” value in data set [1] is -0.414 ± 0.36; in data set [2], -0.5904 ± 0.00039.
Turning to “ACATTTGTTGATACAACCATAAAATGATAAGGCACAAACGCCCGGTCGCCGGCGACACAAACGCCCGGTCGCGGTAAGAGGATCATAGTCAGACCAACATTGCTACGACCCGTATTCGCACCGACAC”, the entries for the “relative integration efficiency (log2)” value in data set [1] and in data set [2] were 1.225 ± 0.01 and -2.28 ± 0.27, respectively.
As for “ACATTTGTTGATACAACCATAAAATGATAAGGCCACCCATAAATTGATAAGGCTCACACCCATAAATTGATATGTACTCTGATCATAGTCAGACCAACATTGCTACGACCCGTATTCGCACCGACAC”, the “relative integration efficiency (log2)” value was -0.158 ± 0.46 in data set [1] and -1.42 ± 0.28 in data set [2].
On the same counts, the results for “ACATTTGTTGATACAACCATAAAATGATAAGTACACCCATAAATTGATAAGTATCACACCCATAAATTGATATGGCCTCTGATCATAGTCAGACCAACATTGCTACGACCCGTATTCGCACCGACAC” are 0.407 ± 0.12 and -0.35 ± 0.029.
As for “ACATTTGTTGATACAACCATAAAATGATAATAACACCCATAAAATGATAATTATCACACCCAATTTAACTATAACGCTCTGATCATAGTCAGACCAACATTGCTACGACCCGTATTCGCACCGACAC”, the “relative integration efficiency (log2)” value in data set [1] was 3.211 ± 0.011; in data set [2], -0.0962 ± 0.22.
On the same counts, the results for “ACATTTGTTGATACAACCATAAAATGATAATAACACCCATAAATTGATAATAATCACACCCATAAATTGATATTCCCTCTGATCATAGTCAGACCAACATTGCTACGACCCGTATTCGCACCGACAC” are -0.098 ± 0.26 and -0.389 ± 0.15.
The corresponding values for “ACATTTGTTGATACAACCATAAAATGATAATATCACCCATAAATTGATAATATTCACACCCATAAATTGATATTCGCTCTGATCATAGTCAGACCAACATTGCTACGACCCGTATTCGCACCGACAC” are -0.639 ± 0.0008 and -0.471 ± 0.0068.
In the case of “ACATTTGTTGATACAACCATAAAATGATAATATCACCCATAAATTGATAATTATCACACCCATAAATTGATATTGCCTCTGATCATAGTCAGACCAACATTGCTACGACCCGTATTCGCACCGACAC”, the “relative integration efficiency (log2)” value is -0.505 ± 0.091 in data set [1] and -0.188 ± 0.066 in data set [2].
On to “ACATTTGTTGATACAACCATAAAATGATAATATGTCCCATAAATTGATAATTATCACACCCATAAATTGATATTGCCTCTGATCATAGTCAGACCAACATTGCTACGACCCGTATTCGCACCGACAC”, for which the figures for the “relative integration efficiency (log2)” value in data set [1] and in data set [2] were -0.96 ± 0.27 and -1.29 ± 0.17, respectively.
Consider “ACATTTGTTGATACAACCATAAAATGATAATCACCCATAAATTGATAATTATCACACCCATAAATTGATATTGCCTCTGATCATAGTCAGACCAACATTGCTACGACCCGTATTCGCACCGACACTG”, for which the entries for the “relative integration efficiency (log2)” value in data set [1] and in data set [2] were -1.91 ± 0.79 and -4.33 ± 0.1, respectively.
The corresponding values for “ACATTTGTTGATACAACCATAAAATGATAATGACACCCATAAATTGATAATGATCACACCCATAAATTGATATTTCCTCTGATCATAGTCAGACCAACATTGCTACGACCCGTATTCGCACCGACAC” are 0.195 ± 0.093 and -0.238 ± 0.065.
